Results taken from publication PMC5096884.

Biological target: Not1-3HA (UniProt P25655)
Experiment: co-immunoprecipitation (TAP pull-down on IgG-coupled magnetic beads), Western blot quantification
Conditions: cells in exponential growth phase; n=5 biological replicates; parent: est. 1.0; read off a plot

Chain of UniProt P25655 (P25655 whole entry): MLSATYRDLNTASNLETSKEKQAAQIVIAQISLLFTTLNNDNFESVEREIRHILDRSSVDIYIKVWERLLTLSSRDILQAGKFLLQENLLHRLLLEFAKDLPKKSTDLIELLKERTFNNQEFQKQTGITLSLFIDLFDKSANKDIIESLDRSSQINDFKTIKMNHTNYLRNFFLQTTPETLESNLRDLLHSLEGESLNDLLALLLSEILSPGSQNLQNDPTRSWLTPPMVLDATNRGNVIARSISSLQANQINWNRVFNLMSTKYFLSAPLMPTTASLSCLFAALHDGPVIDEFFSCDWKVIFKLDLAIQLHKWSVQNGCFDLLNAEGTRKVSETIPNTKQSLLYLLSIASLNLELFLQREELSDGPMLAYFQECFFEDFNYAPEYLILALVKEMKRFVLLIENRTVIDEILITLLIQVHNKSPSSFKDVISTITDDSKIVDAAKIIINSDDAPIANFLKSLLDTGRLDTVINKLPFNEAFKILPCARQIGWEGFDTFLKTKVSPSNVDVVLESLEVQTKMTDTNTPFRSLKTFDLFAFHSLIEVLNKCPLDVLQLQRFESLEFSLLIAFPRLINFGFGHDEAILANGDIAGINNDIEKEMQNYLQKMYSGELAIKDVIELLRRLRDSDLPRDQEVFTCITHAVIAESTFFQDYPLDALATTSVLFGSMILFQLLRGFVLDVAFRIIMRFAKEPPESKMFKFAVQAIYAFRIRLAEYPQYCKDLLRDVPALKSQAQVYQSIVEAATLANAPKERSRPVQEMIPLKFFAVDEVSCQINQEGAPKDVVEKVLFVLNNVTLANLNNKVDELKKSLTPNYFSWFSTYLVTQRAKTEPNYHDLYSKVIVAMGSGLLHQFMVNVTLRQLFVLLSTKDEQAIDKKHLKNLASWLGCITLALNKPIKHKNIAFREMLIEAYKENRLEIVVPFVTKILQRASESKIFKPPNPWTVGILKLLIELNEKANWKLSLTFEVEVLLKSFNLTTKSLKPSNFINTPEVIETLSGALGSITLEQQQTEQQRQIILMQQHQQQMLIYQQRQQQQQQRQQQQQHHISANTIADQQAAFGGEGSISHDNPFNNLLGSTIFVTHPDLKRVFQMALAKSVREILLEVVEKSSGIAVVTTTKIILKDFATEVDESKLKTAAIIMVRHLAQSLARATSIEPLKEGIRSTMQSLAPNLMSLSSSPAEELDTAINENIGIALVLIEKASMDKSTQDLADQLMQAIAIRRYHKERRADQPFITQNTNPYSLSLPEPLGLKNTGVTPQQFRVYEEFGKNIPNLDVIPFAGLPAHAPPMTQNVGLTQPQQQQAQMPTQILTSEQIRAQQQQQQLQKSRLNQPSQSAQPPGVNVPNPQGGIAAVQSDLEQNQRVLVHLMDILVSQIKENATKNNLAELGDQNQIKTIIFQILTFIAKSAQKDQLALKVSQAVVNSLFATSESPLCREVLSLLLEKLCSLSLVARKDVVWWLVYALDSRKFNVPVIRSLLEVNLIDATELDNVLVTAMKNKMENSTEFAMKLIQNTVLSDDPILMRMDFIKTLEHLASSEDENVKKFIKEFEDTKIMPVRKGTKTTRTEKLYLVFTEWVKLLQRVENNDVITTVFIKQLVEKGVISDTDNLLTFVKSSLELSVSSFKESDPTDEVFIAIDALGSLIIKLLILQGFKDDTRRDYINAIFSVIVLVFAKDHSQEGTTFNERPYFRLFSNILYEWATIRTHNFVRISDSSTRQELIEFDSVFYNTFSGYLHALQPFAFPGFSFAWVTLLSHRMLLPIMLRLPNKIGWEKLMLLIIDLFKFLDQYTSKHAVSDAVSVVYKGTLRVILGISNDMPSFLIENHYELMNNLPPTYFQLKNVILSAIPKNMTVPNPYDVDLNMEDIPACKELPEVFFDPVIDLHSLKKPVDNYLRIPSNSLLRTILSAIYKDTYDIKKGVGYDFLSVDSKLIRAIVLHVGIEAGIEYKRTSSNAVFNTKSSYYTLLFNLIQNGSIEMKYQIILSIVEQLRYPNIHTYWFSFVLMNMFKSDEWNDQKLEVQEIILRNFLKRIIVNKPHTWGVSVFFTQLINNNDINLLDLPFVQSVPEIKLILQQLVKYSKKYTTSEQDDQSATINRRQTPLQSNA

Substance “TAP-tagged Dhh1 (from UniProt P39517) R55E; F62E; Q282E; N284E; R355E” has a ratio to parent of 0.44.
